Reference: patent publication US20160200782A1 (MOERAE MATRIX, published 2016)

T1: IKKα(h) (human, UniProt O15111 1-745, limits assumed)
T1 sequence (looked up): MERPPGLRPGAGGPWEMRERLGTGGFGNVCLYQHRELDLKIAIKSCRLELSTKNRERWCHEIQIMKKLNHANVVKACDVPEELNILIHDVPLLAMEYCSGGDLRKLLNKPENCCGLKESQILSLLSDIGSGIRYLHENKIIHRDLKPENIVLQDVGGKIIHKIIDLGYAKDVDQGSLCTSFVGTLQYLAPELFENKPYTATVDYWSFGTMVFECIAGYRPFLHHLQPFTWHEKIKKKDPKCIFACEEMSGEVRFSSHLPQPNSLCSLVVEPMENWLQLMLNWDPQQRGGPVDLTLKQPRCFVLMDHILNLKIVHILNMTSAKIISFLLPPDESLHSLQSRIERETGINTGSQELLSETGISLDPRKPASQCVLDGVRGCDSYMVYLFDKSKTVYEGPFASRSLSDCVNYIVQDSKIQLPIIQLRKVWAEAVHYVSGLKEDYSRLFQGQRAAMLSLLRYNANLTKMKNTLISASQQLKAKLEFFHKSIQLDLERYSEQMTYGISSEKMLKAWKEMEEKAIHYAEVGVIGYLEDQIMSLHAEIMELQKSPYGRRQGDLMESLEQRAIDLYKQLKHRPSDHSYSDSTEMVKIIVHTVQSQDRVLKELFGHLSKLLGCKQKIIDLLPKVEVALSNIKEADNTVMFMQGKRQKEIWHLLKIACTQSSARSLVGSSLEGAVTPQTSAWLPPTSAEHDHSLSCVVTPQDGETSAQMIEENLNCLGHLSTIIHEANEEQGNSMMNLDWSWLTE

T2: Mer(h) (human, UniProt Q12866 578-872, limits assumed)
T2 sequence (looked up): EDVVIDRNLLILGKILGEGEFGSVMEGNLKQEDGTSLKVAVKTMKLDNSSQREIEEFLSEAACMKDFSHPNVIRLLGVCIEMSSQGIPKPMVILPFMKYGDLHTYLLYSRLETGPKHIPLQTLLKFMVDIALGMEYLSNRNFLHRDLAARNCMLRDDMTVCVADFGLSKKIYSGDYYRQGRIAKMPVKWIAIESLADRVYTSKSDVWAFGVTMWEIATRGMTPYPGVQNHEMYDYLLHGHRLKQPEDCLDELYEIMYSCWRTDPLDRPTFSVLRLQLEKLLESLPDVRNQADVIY

T3: Ret(V804L)(h) (human, UniProt P07949 658-1114, limits assumed)
T3 sequence (looked up): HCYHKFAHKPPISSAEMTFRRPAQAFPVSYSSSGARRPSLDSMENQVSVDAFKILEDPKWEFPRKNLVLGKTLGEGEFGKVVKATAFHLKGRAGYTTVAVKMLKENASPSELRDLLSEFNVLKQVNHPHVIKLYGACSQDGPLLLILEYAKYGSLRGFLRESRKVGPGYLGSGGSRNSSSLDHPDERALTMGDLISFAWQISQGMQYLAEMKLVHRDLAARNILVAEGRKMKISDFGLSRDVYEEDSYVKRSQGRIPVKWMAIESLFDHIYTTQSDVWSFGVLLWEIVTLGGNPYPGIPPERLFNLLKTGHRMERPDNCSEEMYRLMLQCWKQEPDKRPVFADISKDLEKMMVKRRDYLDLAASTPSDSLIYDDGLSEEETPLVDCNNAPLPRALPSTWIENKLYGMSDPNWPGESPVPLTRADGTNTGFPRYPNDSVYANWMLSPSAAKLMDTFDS

T4: EphA5(h) (human, UniProt P54756 595-1037, limits assumed)
T4 sequence (looked up): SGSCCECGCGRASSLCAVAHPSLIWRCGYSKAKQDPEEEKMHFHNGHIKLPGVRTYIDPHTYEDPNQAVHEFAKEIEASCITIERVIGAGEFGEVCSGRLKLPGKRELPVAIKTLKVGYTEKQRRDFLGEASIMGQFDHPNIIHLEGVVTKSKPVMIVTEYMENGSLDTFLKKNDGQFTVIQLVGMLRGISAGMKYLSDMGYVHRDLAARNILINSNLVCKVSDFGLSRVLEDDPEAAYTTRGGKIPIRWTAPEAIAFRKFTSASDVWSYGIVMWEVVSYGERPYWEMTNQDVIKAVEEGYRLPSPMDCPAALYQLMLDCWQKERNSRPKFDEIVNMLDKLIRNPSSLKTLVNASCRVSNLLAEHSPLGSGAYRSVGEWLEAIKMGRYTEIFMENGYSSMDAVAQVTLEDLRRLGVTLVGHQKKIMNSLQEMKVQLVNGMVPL


Experiments:
Experiment in all cases: cell-based or functional assay
HIPK1(h) = HIPK1(h) (human, UniProt Q86Z02 158-555, limits assumed)
IKKα(h) = biological target: T1, IKKα(h)
Mer(h) = biological target: T2, Mer(h)
Met(h) = Met(h) (human, UniProt P08581 956-1390, limits assumed)
PAK3(h) = PAK3(h) (human, UniProt O75914 1-559, limits assumed)
PTK5(h) = PTK5(h) (human, UniProt P42685 1-505, limits assumed)
Ret(V804L)(h) = biological target: T3, Ret(V804L)(h)
Rsk3(h) = Rsk3(h) (human, UniProt Q15349 1-733, limits assumed)
Tie2(h) = Tie2(h) (human, UniProt Q02763 771-1124, limits assumed)
CDK6/cyclinD3(h) = CDK6/cyclinD3(h) (human, UniProt Q00534 1-326; P30281 1-292)
c-RAF(h) = c-RAF(h) (human, UniProt P04049 306-648, limits assumed)
EphA5(h) = biological target: T4, EphA5(h)
EphA7(h) = EphA7(h) (human, UniProt Q15375 577-998, limits assumed)
FGFR4(h) = FGFR4(h) (human, UniProt P22455 460-802, limits assumed)
Further: test concentration or dose not given here.

Chain of Met(h) (P08581 956-1390 limits assumed): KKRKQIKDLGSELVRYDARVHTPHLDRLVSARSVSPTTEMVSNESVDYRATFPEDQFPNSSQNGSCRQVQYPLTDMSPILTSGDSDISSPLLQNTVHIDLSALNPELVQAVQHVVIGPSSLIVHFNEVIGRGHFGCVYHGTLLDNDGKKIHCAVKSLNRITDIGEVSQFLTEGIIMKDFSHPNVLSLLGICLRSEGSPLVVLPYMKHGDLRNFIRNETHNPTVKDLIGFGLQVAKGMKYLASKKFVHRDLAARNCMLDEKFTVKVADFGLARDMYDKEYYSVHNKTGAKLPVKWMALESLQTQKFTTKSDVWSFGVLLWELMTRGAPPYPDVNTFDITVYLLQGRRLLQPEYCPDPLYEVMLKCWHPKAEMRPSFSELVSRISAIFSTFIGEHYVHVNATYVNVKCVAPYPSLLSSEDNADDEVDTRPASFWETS
Chain of Tie2(h) (Q02763 771-1124 limits assumed): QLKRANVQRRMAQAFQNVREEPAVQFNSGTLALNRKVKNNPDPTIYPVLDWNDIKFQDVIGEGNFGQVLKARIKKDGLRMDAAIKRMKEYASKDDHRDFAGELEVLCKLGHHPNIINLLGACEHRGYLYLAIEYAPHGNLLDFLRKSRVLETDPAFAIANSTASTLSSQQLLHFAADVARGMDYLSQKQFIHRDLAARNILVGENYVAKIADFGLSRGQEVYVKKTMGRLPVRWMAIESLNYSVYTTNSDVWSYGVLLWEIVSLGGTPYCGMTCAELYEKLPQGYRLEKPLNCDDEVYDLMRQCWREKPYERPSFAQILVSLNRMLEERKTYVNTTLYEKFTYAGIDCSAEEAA
Chain of Rsk3(h) (Q15349 whole entry): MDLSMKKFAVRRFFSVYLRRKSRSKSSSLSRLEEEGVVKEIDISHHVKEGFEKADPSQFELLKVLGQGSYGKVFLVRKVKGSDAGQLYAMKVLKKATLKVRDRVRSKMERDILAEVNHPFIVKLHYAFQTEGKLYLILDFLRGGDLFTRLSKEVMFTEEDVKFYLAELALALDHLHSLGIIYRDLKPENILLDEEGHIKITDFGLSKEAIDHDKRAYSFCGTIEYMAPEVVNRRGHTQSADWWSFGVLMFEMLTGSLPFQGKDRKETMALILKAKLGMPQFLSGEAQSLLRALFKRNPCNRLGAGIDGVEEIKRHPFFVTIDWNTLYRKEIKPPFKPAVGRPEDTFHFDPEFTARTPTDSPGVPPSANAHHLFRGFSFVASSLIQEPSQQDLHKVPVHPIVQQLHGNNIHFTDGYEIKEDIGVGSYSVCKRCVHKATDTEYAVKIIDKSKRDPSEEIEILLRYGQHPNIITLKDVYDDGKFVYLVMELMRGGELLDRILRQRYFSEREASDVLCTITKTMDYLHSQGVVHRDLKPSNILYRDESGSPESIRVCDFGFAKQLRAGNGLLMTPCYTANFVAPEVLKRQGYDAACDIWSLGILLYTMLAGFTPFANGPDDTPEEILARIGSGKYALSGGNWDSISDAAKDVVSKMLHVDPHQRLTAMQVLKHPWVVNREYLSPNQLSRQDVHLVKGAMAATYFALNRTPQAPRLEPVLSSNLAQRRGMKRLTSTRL
Chain of CDK6/cyclinD3(h) (Q00534 whole entry, chain 1 of 2): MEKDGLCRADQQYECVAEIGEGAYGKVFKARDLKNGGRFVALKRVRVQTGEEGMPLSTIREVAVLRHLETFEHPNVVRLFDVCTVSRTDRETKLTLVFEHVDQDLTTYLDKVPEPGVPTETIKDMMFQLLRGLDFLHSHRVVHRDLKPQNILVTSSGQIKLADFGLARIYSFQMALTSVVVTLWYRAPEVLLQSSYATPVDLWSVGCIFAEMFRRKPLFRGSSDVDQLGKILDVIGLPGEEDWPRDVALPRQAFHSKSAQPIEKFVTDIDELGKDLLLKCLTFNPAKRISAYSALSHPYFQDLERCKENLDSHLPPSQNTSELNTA
Chain of CDK6/cyclinD3(h) (P30281 whole entry, chain 2 of 2): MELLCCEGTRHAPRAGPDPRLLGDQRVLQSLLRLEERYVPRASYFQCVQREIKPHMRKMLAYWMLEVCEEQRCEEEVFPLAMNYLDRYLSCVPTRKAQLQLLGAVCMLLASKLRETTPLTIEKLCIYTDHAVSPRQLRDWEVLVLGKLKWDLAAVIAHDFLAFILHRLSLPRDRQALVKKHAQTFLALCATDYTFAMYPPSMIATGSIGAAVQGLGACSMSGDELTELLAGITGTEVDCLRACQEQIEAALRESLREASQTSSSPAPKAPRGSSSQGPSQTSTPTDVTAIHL
Chain of PTK5(h) (P42685 whole entry): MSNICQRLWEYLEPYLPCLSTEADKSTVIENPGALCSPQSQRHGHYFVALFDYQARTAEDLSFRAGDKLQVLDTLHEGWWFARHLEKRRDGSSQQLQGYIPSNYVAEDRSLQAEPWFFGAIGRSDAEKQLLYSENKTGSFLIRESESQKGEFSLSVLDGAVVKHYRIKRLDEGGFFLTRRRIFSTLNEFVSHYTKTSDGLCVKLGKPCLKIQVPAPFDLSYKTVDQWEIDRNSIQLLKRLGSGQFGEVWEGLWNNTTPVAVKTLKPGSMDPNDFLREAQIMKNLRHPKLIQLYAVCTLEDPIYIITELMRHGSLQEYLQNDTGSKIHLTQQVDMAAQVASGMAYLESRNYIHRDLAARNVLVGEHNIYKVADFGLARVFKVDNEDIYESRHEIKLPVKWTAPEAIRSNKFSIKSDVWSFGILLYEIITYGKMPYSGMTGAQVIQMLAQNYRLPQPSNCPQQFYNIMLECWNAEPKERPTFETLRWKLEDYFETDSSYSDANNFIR
Chain of EphA7(h) (Q15375 577-998 limits assumed): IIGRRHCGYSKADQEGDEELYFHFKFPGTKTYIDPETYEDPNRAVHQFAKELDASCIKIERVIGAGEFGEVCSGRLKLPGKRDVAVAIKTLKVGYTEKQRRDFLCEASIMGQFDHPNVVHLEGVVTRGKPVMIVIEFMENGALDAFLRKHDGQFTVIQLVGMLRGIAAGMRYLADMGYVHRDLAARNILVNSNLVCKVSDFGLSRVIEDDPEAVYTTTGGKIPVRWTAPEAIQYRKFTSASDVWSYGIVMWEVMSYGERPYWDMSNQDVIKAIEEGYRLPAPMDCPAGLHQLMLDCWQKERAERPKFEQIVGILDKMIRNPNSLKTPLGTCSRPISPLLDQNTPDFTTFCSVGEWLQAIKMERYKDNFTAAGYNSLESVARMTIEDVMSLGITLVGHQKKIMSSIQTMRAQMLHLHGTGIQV
Chain of HIPK1(h) (Q86Z02 158-555 limits assumed): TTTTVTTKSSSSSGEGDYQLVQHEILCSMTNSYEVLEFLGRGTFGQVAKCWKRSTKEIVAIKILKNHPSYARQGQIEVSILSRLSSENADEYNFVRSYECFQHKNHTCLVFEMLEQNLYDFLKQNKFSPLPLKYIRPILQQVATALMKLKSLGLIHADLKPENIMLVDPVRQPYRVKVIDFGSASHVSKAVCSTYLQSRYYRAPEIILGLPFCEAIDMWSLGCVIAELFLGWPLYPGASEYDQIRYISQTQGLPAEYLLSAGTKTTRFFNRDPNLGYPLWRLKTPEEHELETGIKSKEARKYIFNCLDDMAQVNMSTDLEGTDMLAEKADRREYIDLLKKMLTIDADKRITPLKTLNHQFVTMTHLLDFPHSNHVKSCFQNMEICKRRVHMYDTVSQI
Chain of PAK3(h) (O75914 whole entry): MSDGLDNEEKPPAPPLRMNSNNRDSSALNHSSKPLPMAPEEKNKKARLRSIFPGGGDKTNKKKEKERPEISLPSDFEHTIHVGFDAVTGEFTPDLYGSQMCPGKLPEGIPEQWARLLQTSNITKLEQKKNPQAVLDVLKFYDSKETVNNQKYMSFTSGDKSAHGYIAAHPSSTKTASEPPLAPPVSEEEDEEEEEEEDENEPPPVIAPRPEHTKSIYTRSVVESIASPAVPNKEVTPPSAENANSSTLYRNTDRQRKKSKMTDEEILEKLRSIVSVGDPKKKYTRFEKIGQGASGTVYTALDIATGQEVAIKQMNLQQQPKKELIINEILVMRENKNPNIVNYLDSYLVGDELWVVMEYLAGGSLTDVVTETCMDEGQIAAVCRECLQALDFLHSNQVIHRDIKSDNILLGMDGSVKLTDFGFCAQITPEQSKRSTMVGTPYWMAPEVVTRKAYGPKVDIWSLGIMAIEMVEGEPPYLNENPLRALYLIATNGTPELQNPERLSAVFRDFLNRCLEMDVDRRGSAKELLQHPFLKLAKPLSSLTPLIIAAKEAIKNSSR
Chain of FGFR4(h) (P22455 460-802 limits assumed): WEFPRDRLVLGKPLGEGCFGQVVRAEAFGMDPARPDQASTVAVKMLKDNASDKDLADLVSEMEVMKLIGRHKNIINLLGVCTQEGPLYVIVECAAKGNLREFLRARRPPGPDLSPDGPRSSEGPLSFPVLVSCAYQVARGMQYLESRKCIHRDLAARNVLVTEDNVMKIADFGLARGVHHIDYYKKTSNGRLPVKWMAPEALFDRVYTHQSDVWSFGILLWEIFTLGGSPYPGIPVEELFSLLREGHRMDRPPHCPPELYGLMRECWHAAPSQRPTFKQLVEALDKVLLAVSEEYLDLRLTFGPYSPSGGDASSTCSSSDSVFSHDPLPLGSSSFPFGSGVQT

| % activity (HIPK1(h)) | % activity (IKKα(h)) | % activity (Mer(h)) | % activity (Met(h)) | % activity (PAK3(h)) | % activity (PTK5(h)) | % activity (Ret(V804L)(h)) | % activity (Rsk3(h)) | % activity (Tie2(h)) | % activity (CDK6/cyclinD3(h)) | % activity (c-RAF(h)) | % activity (EphA5(h)) | % activity (EphA7(h)) | % activity (FGFR4(h)) | Binder |
| --- | --- | --- | --- | --- | --- | --- | --- | --- | --- | --- | --- | --- | --- | --- |
| 74% | 93% | 52% | 65% | 140% | 132% | 79% | 76% | 26% | 86% | 107% | 18% | 159% | 28% | FAKLAARLYRKALARQLGVAA [MMI-0300] |
| 91% | 87% | 50% | 62% | 121% | 129% | 73% | 71% | 21% | 85% | 102% | 24% | 222% | 19% | KAFAKLAARLYRKALARQLGVAA [MMI-0400] |
